The values below come from patent publication US20240239890A1 (Chugai, published 2024).

T1: Human RNF43 extracellular domain (amino acids 1-190) with a Flag tag on its C terminus (human, UniProt Q68DV7 24-190)
T1 construct: also called recombinant human RNF43; human RNF43 ECD
T1 sequence: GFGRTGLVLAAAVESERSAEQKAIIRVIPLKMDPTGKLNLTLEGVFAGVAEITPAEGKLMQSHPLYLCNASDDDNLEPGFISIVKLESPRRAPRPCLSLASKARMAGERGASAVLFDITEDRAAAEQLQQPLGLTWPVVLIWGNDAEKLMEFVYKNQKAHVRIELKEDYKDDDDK

B1: RNN0191kk (antibody, human IgG1, kappa, N297A, V domains shown)
VH: QSLEESGGRLVTPGGSLTLTCTASGFSLSSYAIGWVRQAPGKGLEYVGIIERNDKTAYASWAKGRFTISRTSTTVDLKMTSLTTEDTATYFCARGYLDNSPLWGPGTLVTVSS
VL: AIEMTQTPASVSAAVGGTVTINCQSSQSVGDNIWLGWYQQKPGQPPKLLIRYASTLASGVPSRFKGSGSGTQFTLTISDLECDDAATYYCAGAYNGLIYSFGGGTKVEIKR
notes: Rabbit variable regions recombined with BS03aHis heavy-chain constant region and hk0MC light-chain constant region; also called anti-RNF43 monospecific antibody
B2: RNN0187jj (antibody, human IgG1, kappa, N297A)
heavy: QSLEESGGDLVKPGASLTLTCTASGFSFNSAYYMCWVRQAPGKGLEWIGCIYTGSGSTYYASWAKGRFTISKTSSTTVTLQMTSLTVADTATYFCARSGVSTYYTLWGPGTLVTVSSASTKGPSVFPLAPSSRSTSESTAALGCLVKDYFPEPVTVSWNSGALTSGVHTFPAVLQSSGLYSLSSVVTVPSSSLGTKTYTCNVDHKPSNTKVDKRVEPKSCDKTHTCPPCPAPELRRGPKVFLFPPKPKDTLMISRTPEVTCVVVDVSQEDPEVQFNWYVDGVEVHNAKTKPREEQFASTYRVVSVLTVLHQDWLNGKEYKCKVSNKGLPSSIEKTISKAKGQPREPQVYTLPPSREEMTKNQVSLTCLVKGFYPSDIAVEWESNGQPENNYKTTPPYLDSDGSFFLYSKLTVDKSRWQQGNVFSCSVMHEALHNHYTQESLSLSPHHHHHHHH
light: DVVMTQTPSSVSAAVGGTVTIKCQASQSIYSGLAWYQQKPGQPPKLLIYGASTLASGVPSRFKGSGSGTEYTLTISGVQCDDAATYYCQNNYYTPSNGWAFGGGTKVEIKRTVAAPSVFIFPPSDEQLKSGTASVVCLLNNFYPREAKVQWKVDNALQSGNSQESVTEQDSKDCTYSLSSTLTLSKADYEKHKVYACEVTHQGLSSPVTKSFNRGEC
notes: as for B1
B3: RNN0192nn (antibody, human IgG1, kappa, N297A)
heavy: QEQLVESGGGLVQPEGSLTLTCTASGFSFSSRYYMCWVRQAPGKGLEWIGCIYTGSGSTYYASWAKGRVTISKTSSTTVTLQMTSLTAADTATYFCAREAGSFNLWGPGTLVTVSSASTKGPSVFPLAPSSRSTSESTAALGCLVKDYFPEPVTVSWNSGALTSGVHTFPAVLQSSGLYSLSSVVTVPSSSLGTKTYTCNVDHKPSNTKVDKRVEPKSCDKTHTCPPCPAPELRRGPKVFLFPPKPKDTLMISRTPEVTCVVVDVSQEDPEVQFNWYVDGVEVHNAKTKPREEQFASTYRVVSVLTVLHQDWLNGKEYKCKVSNKGLPSSIEKTISKAKGQPREPQVYTLPPSREEMTKNQVSLTCLVKGFYPSDIAVEWESNGQPENNYKTTPPYLDSDGSFFLYSKLTVDKSRWQQGNVFSCSVMHEALHNHYTQESLSLSPHHHHHHHH
light: DVVMTQTPASVSEPVGGTVTIKCQASQSIYSGLAWYQQKPGQPPKLLIYSASKLASGVPSRFKGSGSGTEYTLTISDLECADAATYYCQNYYYGISNGWTFGGGTKVEIKRTVAAPSVFIFPPSDEQLKSGTASVVCLLNNFYPREAKVQWKVDNALQSGNSQESVTEQDSKDCTYSLSSTLTLSKADYEKHKVYACEVTHQGLSSPVTKSFNRGEC
notes: as for B1
B4: RNN0198oo (antibody, human IgG1, kappa, N297A, V domains shown)
VH: QEQLVESGGGLVQPEGSLTLTCKASGLDFSSSYWMCWVRQAPGKGLEWIGCIYTGSSGSTYYASWAKGRFTISKTSSTTVTLQMTSLTAADTATYFCARTGSRYWNYFELWGPGTLVTVSS
VL: DVVMTQTPPSVSAAVGGTVTIKCQASQSIYRGLAWYQQKPGQPPNLLIYSASTLASGVPSRFSGSGSGTEYTLTISDLECADAATYYCQSYYYSSSNGWPFGGGTKVEIKR
notes: as for B1
B5: RNN0193jj (antibody, human IgG1, kappa, N297A)
heavy: QSLEESGGDLVKPGASLTLTCTASGFSFSNNYWICWVRQAPGKGPEWIACIYTGDGDTDYASWAKGRFTISKTSSTTVTLQMTSLTAADTATYFCAREAGTVDGVWNYVFNLWGPGTLVTVSSASTKGPSVFPLAPSSRSTSESTAALGCLVKDYFPEPVTVSWNSGALTSGVHTFPAVLQSSGLYSLSSVVTVPSSSLGTKTYTCNVDHKPSNTKVDKRVEPKSCDKTHTCPPCPAPELRRGPKVFLFPPKPKDTLMISRTPEVTCVVVDVSQEDPEVQFNWYVDGVEVHNAKTKPREEQFASTYRVVSVLTVLHQDWLNGKEYKCKVSNKGLPSSIEKTISKAKGQPREPQVYTLPPSREEMTKNQVSLTCLVKGFYPSDIAVEWESNGQPENNYKTTPPYLDSDGSFFLYSKLTVDKSRWQQGNVFSCSVMHEALHNHYTQESLSLSPHHHHHHHH
light: AQVLTQTPSPVSAAVGGTVTISCQSSQSVYNDNLAWFQQKPGQPPKLLIYDASTLASGVPSRFKGSGSGTQFTLTISKLQCDDAATYYCQGVYIGHIFTFGGGTKVEIKRTVAAPSVFIFPPSDEQLKSGTASVVCLLNNFYPREAKVQWKVDNALQSGNSQESVTEQDSKDCTYSLSSTLTLSKADYEKHKVYACEVTHQGLSSPVTKSFNRGEC
notes: as for B1
B6: RNN0242nn (antibody, human IgG1, kappa, N297A)
heavy: QQQLEEYGGDLVQPEGSLTLTCKASGLDFSSSYWMCWVRQAPGKGLEWIACIYTGSSGSTSYASWAKGRFTISKTSSTTVTLQMTSLTAADTATYFCARDYDYTAYAYGIMSLWGPGTLVTVSSASTKGPSVFPLAPSSRSTSESTAALGCLVKDYFPEPVTVSWNSGALTSGVHTFPAVLQSSGLYSLSSVVTVPSSSLGTKTYTCNVDHKPSNTKVDKRVEPKSCDKTHTCPPCPAPELRRGPKVFLFPPKPKDTLMISRTPEVTCVVVDVSQEDPEVQFNWYVDGVEVHNAKTKPREEQFASTYRVVSVLTVLHQDWLNGKEYKCKVSNKGLPSSIEKTISKAKGQPREPQVYTLPPSREEMTKNQVSLTCLVKGFYPSDIAVEWESNGQPENNYKTTPPYLDSDGSFFLYSKLTVDKSRWQQGNVFSCSVMHEALHNHYTQESLSLSPHHHHHHHH
light: AEIVMTQTPSSKSAAVGDTVTIKCQASQSITSYLSWYQQKPGQPPKLLIYRASTLASGVPSRFKGSGSGTQFTLTISDLECADAATYYCQSNYGSYSTNYGVTFGGGTKVEIKRTVAAPSVFIFPPSDEQLKSGTASVVCLLNNFYPREAKVQWKVDNALQSGNSQESVTEQDSKDCTYSLSSTLTLSKADYEKHKVYACEVTHQGLSSPVTKSFNRGEC
notes: as for B1
B7: RNN0246jj (antibody, human IgG1, kappa, N297A)
heavy: QSVEESGGRLVTPDETLTLTCTVSGFSLNNYHMIWVRQAPGEGLEYIGFINTGGSAYYANWAKGRFTISKTSTTVDLKITSPTTEDTATYFCASVSWRTDYSFELWGPGTLVTVSSASTKGPSVFPLAPSSRSTSESTAALGCLVKDYFPEPVTVSWNSGALTSGVHTFPAVLQSSGLYSLSSVVTVPSSSLGTKTYTCNVDHKPSNTKVDKRVEPKSCDKTHTCPPCPAPELRRGPKVFLFPPKPKDTLMISRTPEVTCVVVDVSQEDPEVQFNWYVDGVEVHNAKTKPREEQFASTYRVVSVLTVLHQDWLNGKEYKCKVSNKGLPSSIEKTISKAKGQPREPQVYTLPPSREEMTKNQVSLTCLVKGFYPSDIAVEWESNGQPENNYKTTPPYLDSDGSFFLYSKLTVDKSRWQQGNVFSCSVMHEALHNHYTQESLSLSPHHHHHHHH
light: AQVLTQTPSPVSAAVGGTVTISCQASQSVYANNRLAWFQQKPGQPPKLLIYSASTLASGVPSRFKGSGSGTQFTLTISGVQCDDAATYYCAGAYTGNIYTFGGGTKVEIKRTVAAPSVFIFPPSDEQLKSGTASVVCLLNNFYPREAKVQWKVDNALQSGNSQESVTEQDSKDCTYSLSSTLTLSKADYEKHKVYACEVTHQGLSSPVTKSFNRGEC
notes: as for B1
B8: RNN0275kk (antibody, human IgG1, kappa, N297A, V domains shown)
VH: QSVEESGGRLVTPGTPLTLTCTVSGWTINSYHMCWVRQAPGEGLEWIATITTGGVTFYANWARGRFTISKTSTTVDLKMTSLTAADTATYFCVRGPDYTYFDLWGPGTLVTVSS
VL: NVVLTQTPSSVSAAVGGTVTIKCQASQSISDTLAWYQQKPGQPPKLLIYYASDLASGVPSRFSGSGSGTEFTLTINDLECADAATYYCQSYVYSNGIDNTFGGGTKVEIKR
notes: as for B1
B9: RNN0207ii (antibody, human IgG1, kappa, N297A)
heavy: QEQLEESGGRLVTPGGSLTLTCTASGFSLSSYVISWVRQAPGEGLEYIGYVSTGGSPYYASWAKGRFTISRTSTAVDLKMTSLTASDTATYFCARYGYLDYSGLDLWGQGTLVTVSSASTKGPSVFPLAPSSRSTSESTAALGCLVKDYFPEPVTVSWNSGALTSGVHTFPAVLQSSGLYSLSSVVTVPSSSLGTKTYTCNVDHKPSNTKVDKRVEPKSCDKTHTCPPCPAPELRRGPKVFLFPPKPKDTLMISRTPEVTCVVVDVSQEDPEVQFNWYVDGVEVHNAKTKPREEQFASTYRVVSVLTVLHQDWLNGKEYKCKVSNKGLPSSIEKTISKAKGQPREPQVYTLPPSREEMTKNQVSLTCLVKGFYPSDIAVEWESNGQPENNYKTTPPYLDSDGSFFLYSKLTVDKSRWQQGNVFSCSVMHEALHNHYTQESLSLSPHHHHHHHH
light: AQVLTQTPSSTSTAVGGTVTINCQSSQSVYEYNHLSWFQQKPGQPPKLLIYGASTLASGVPSRFKGSGSGTQFTLTISDLECDDAATYYCQGAYYGVVDTFGGGTKVEIKRTVAAPSVFIFPPSDEQLKSGTASVVCLLNNFYPREAKVQWKVDNALQSGNSQESVTEQDSKDCTYSLSSTLTLSKADYEKHKVYACEVTHQGLSSPVTKSFNRGEC
notes: as for B1

This assay concerns the target T1, Human RNF43 extracellular domain (amino …). As to the kind of experiment: SPR, Biacore T200, antibody captured by anti-human Fc, RNF43 as analyte, pH 7.4, 25 C. On the procedure:
The affinity of the anti-RNF43 monospecific antibodies towards human RNF43 at pH 7.4 was determined at 25 degrees C. using the Biacore T200 instrument (GE Healthcare). Anti-human Fc (GE Healthcare) was immobilized onto all flow cells of a CM4 sensor chip using an amine coupling kit (GE Healthcare). All antibodies and analytes were prepared in ACES at pH 7.4 containing 20 mM ACES, 150 mM NaCl, 0.05% Tween 20, 0.005% NaN₃. Each antibody was captured onto the sensor surface by anti-human Fc. Antibody capture levels were aimed at 312 resonance unit (RU). Recombinant human RNF43 was injected at 200 nM, 50 nM, and 12.5 nM prepared by a four-fold serial dilution, followed by dissociation. The sensor surface was regenerated each cycle with 3M MgCl2. Binding affinity was determined by processing and fitting the data to a 1:1 binding model using the Biacore T200 Evaluation software, version 2.0 (GE Healthcare).
(In general: Surface plasmon resonance follows binding to a sensor surface in real time, without labels.)
What is called Kd is the equilibrium constant for the complex coming apart. As usually defined, the koff is a measure of how fast the partners let go of each other. A low value points to a long-lived complex. In general, kon refers to the rate constant with which the complex forms. B1: the Kd came out at 71.1 nM, the koff came to 0.294 s⁻¹ and the kon turned out to be 4.14e+06 M⁻¹ s⁻¹.
In the same order, the values of B2 are 17 nM, 0.0467 s⁻¹ and 2.75e+06 M⁻¹ s⁻¹.
The like results for B3 were, in that order, 0.928 nM, 0.00558 s⁻¹ and 6.02e+06 M⁻¹ s⁻¹.
In the same order, the values of B4 are 1.11 nM, 0.00291 s⁻¹ and 2.63e+06 M⁻¹ s⁻¹.
Molecule B5 returned a Kd of 63.5 nM, a koff of 0.0458 s⁻¹ and a kon of 721000 M⁻¹ s⁻¹.
In the same order, the values of B6 are 33.3 nM, 0.0235 s⁻¹ and 704000 M⁻¹ s⁻¹.
Turning to B7, binding was put at a Kd of 48.6 nM, the koff amounted to 0.00944 s⁻¹ and the kon is 194000 M⁻¹ s⁻¹.
In the same order, the values of B8 are 65.6 nM, 0.131 s⁻¹ and 1.99e+06 M⁻¹ s⁻¹.
The like results for B9 were, in that order, 73.1 nM, 0.106 s⁻¹ and 1.45e+06 M⁻¹ s⁻¹.
